Data from patent US20250074980A1 (BRIGHAM AND WOMEN S HOSPITAL, published 2025).
Numbering of substitutions follows the chain as printed. Names and notes keep the numbering of the source. Values joined by “and” are separate entries in the source; they are usually repeats but may differ in a detail not shown here. Equal values may be shown once.

T1: CEACAM3 on transfected HeLa cells (human, UniProt P40198 35-252)
T1 construct: whole, on cells; also called HeLa-CEACAM3; HeLa C3
T1 sequence (looked up): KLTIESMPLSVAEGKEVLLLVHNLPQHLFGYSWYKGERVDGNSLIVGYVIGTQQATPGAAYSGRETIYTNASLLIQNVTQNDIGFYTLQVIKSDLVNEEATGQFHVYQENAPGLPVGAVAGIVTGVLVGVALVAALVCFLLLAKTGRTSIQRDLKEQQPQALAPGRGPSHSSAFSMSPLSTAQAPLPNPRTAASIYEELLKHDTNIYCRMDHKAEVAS

T2: CEACAM8 on transfected HeLa cells (human, UniProt P31997 35-320)
T2 construct: whole, on cells; also called HeLa-CEACAM8; HeLa C8
T2 sequence (looked up): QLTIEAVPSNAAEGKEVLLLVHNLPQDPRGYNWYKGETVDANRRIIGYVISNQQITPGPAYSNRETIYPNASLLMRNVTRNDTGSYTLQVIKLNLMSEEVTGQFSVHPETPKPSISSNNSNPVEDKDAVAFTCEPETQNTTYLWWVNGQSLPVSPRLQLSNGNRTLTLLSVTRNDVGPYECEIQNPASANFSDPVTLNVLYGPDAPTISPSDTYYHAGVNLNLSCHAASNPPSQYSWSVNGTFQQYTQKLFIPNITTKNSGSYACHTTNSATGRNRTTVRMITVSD

T3: His-tagged CEACAM1 (human, UniProt P13688 35-428)
T3 construct: 45 kDa SPR analyte; also called CEACAM1-HIS; CEACAM1 analyte
T3 sequence: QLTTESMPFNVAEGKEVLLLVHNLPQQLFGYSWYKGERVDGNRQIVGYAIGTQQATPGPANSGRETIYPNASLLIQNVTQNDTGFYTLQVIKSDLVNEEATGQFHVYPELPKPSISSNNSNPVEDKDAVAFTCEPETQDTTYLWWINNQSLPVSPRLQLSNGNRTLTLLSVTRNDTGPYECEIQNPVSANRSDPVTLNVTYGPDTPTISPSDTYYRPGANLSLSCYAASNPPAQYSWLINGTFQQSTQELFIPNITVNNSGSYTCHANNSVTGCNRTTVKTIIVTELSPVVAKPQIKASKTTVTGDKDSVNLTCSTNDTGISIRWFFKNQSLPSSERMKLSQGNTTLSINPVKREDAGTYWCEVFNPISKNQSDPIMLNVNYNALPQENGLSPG

T4: GST-CEACAM1 (human, UniProt P13688 35-141, limits assumed)
T4 construct: also called human CEACAM1-GST protein
T4 sequence: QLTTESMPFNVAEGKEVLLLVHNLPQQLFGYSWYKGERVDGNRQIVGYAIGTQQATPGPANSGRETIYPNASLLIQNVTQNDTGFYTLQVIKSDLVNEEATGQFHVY

T5: CEACAM6 on transfected HeLa cells (human, UniProt P40199 35-320)
T5 construct: whole, on cells; also called HeLa-CEACAM6; HeLa C6
T5 sequence (looked up): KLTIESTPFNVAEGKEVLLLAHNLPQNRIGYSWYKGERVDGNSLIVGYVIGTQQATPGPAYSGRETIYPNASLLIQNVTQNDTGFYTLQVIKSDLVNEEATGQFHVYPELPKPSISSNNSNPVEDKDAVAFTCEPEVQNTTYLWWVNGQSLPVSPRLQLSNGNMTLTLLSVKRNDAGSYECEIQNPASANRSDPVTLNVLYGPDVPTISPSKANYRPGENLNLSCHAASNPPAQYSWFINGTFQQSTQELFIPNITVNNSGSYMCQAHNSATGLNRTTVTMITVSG

B1: VH2/Vκ9 (antibody, IgG4, V domains shown)
VH: EVQLLESGGGLVQPGGSLRLSCAASGFIFSSHGMSWVRQAPGKGLEWVATISSGGTYTYYPDSVKGRFTISRDNSKNTLYLQMNSLRAEDTAMYYCARHDFDYDAAWFAYWGQGTLVTVSS
VL: EIVLTQSPATLSLSPGERATLSCRANSSVSYMYWYQQKPGQAPRPLIYLTSNRATGVPARFSGSGSGTDYTLTISSLEPEDFATYYCQQWSSNPPTFGQGTKLEIK
notes: IgG4 (S241P), kappa
B2: VH2/Vκ10 (antibody, IgG4, V domains shown)
VH: B1 VH
VL: B1 VL with L46W, V57I, Y70F
notes: IgG4 (S241P), kappa
B3: VH2/Vκ12 (antibody, IgG4, V domains shown)
VH: B1 VH
VL: B1 VL with V57I
notes: IgG4 (S241P), kappa
B4: VH2/Vκ11 (antibody, IgG4, V domains shown)
VH: B1 VH
VL: B1 VL with L46W, V57I, T84V
notes: IgG4 (S241P), kappa
B5: VH2/Vκ5 (antibody, IgG4, V domains shown)
VH: B1 VH
VL: B1 VL with Y33A, P45L, V57I, Y70F, T84V
notes: IgG4 (S241P), kappa
B6: VH4/Vκ5 (antibody, IgG4, V domains shown)
VH: B1 VH with A49S, P61A, M93V
VL: B1 VL with Y33A, P45L, V57I, Y70F, T84V
notes: IgG4 (S241P), kappa
B7: VH4/Vκ3 (antibody, IgG4, V domains shown)
VH: B1 VH with A49S, P61A, M93V
VL: B1 VL with Y33A, L46W
notes: IgG4 (S241P), kappa
B8: VH3/Vκ5 (antibody, IgG4, V domains shown)
VH: B1 VH with P61A
VL: B1 VL with Y33A, P45L, V57I, Y70F, T84V
notes: IgG4 (S241P), kappa
B9: VH2/Vκ3 (antibody, IgG4, V domains shown)
VH: B1 VH
VL: B1 VL with Y33A, L46W
notes: IgG4 (S241P), kappa

molecular target: T1, CEACAM3 on transfected HeLa cells; test: flow cytometry, transfected HeLa
Procedure, shortened: (§1)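 For each HeLa line stably transfected with one CEACAM family member, staining is given as the measure of binding selectivity. Cultures were held at 37° C with 5.0% CO₂ in DMEM plus 10% fetal bovine serum. The test antibody, a fluorochrome-conjugated isotype-specific secondary antibody and DAPI as viability dye were applied, with acquisition on a Cytoflex and analysis in FlowJo.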

| binding result | Binder |
| --- | --- |
| no binding | B1 |
| no binding | B2 |
| no binding | B3 |
| no binding | B4 |

molecular target: T2, CEACAM8 on transfected HeLa cells; test: flow cytometry, transfected HeLa
Procedure, shortened: as §1

| binding result | Binder |
| --- | --- |
| no binding | B1 |
| no binding | B2 |
| no binding | B3 |
| no binding | B4 |

molecular target: T3, His-tagged CEACAM1; test: SPR multi-cycle, IgG captured
Description: As an alternative approach to assess the binding of the 36 antibody combinations and the three control antibodies to CEACAM1, a kinetic analysis was performed on a Biacore T200 (serial no. 1909913) running Biacore T200 Evaluation Software V2.0.1 (Uppsala, Sweden). All experiments were run at 25° C. with HBS-P+ running buffer (pH 7.4) (GE Healthcare, cat. no. BR100671). All kinetic experiments were performed using His-tagged CEACAM1 as the analyte. For all experiments, antibodies were immobilized onto a Series S Protein A sensor chip surface. For kinetic experiments, the amount of immobilized/captured ligand was limited to avoid mass transfer effects at the surface of the chip with the surface ideally having an analyte binding level (Rₘₐₓ) of 50-150 RUs. Using a MW of 45 kDa for the CEACAM1 analyte, 150 kDa for the antibody ligand (estimated value for IgG), 50 RU for Rmax and the stoichiometry (Sm) as 2 due to the ability of each antibody to bind 2 target molecules, a target response level of ˜75 RUs was set for capture of all the sample antibodies.
The signal from the reference channel Fc1 was subtracted from that of Fc2, Fc3 and Fc4 to correct for differences in non-specific binding to a reference surface, a global Rmax parameter was used in the 1-to-1 binding model. The relative Kp compared to […] was calculated by dividing the Kp of the humanized CEACAM antibody variants by that of the chimeric antibody VH0/Vκ0 on the same chip. A summary of the averaged relative Kp obtained for the 12 antibody combinations analyzed using multi cycle kinetics can be found in Table 5.

| Kd | average relative KD to VH0/Vκ0 | koff | kon | relative KD to VH0/Vκ0 | Binder |
| --- | --- | --- | --- | --- | --- |
| 96 nM and 75 nM | 1.9 | – | – | – | B1 |
| 61 nM | 2.1 | 0.0246 s⁻¹ | 407000 M⁻¹ s⁻¹ | 2.1 | B2 |
| 152 nM | 2.7 | 0.0458 s⁻¹ | 302000 M⁻¹ s⁻¹ | 2.7 | B3 |
| 77 nM | 2.7 | 0.0289 s⁻¹ | 375000 M⁻¹ s⁻¹ | 2.5 | B4 |

molecular target: T3, His-tagged CEACAM1; test: SPR single-cycle, IgG captured
Procedure, shortened: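 Biacore T200 single-cycle kinetics at 25° C in HBS-P+ (pH 7.4): antibodies (purified or HEK EBNA supernatant, 1 μg/ml) captured on Protein A to ~75 RU, His-tagged CEACAM1 analyte at 3.125–50 nM (5-point 2-fold) at 50 μl/min without regeneration. Reference channel Fc1 subtracted.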

| Kd | relative KD to VH0/Vκ0 | binding result | Binder |
| --- | --- | --- | --- |
| 110 nM | 2.7 | – | B1 |
| – | – | no binding (tested: 50 nM) | B5 |
| 131 nM | 3.2 | – | B2 |
| 145 nM | 3.5 | – | B3 |
| – | – | no binding (tested: 50 nM) | B6 |
| – | – | no binding (tested: 50 nM) | B7 |
| – | – | no binding (tested: 50 nM) | B8 |
| 122 nM | 3 | – | B4 |

molecular target: T4, GST-CEACAM1; test: competition ELISA vs parental murine antibody
Description: The binding of the purified antibodies to human CEACAM1 was assessed in a competition ELISA assay. Nunc Immuno MaxiSorp 96 well flat bottom microtitre plates were pre-coated with 1 μg/ml of GST-CEACAM1 in 1×PBS, overnight at 4° C. The following day the plates were blocked for 1 hour at room temperature (“RT”) with 2% BSA/PBS before washing 3× with PBST pH 7.4. A 3-fold dilution series of the chimeric antibody chimeric antibody VH0/Vκ0, an irrelevant IgG4 antibody, and the humanized CEACAM1 antibodies from 100 μg/ml to 0.07 or 0.002 μg/ml were pre-mixed with a constant concentration of parental murine antibody (0.45 μg/ml final concentration), added to the plate and incubated for 1 hour at room temperature. Following 3×PBST washes, the binding of the parental murine CEACAM1 antibody was detected with an anti-mouse-HRP and TMB substrate. The reaction was stopped with 3 M HCl, absorbance read at 450 nm on a Dynex Technologies MRX TC II plate reader and the binding curves plotted. The binding of the humanized CEACAM antibody variants to CEACAM1 was compared to the chimeric antibody (VHO/Vκ0), which was included on each plate.

| binding result | Binder |
| --- | --- |
| no binding (tested: 100 µg/ml) | B5 |
| no binding (tested: 100 µg/ml) | B6 |
| no binding (tested: 100 µg/ml) | B7 |
| no binding (tested: 100 µg/ml) | B9 |
| no binding (tested: 100 µg/ml) | B8 |

molecular target: T5, CEACAM6 on transfected HeLa cells; test: flow cytometry, HeLa-CEACAM6 transfectants, % positive cells
Description: Binding selectivity for CEACAM1 was tested for the 24 humanized antibody variants that bound to CEACAM1 (see Table 3), as well as the chimeric control antibody VH0/Vκ0, by flow cytometry on HeLa cells transfected with CEACAM1, 3, 5, 6 and 8. […] There was no evidence of any staining of the HeLa-CEACAM3 or HeLa-CEACAM8 transfectants. […] Due to its favorable affinity to and selectivity for CEACAM1 as well as its favorable expression level, VH1/Vκ8 was chosen as the framework for affinity maturation.

| binding result | Binder |
| --- | --- |
| no binding | B1 |
| no binding | B2 |
| no binding | B3 |
| no binding | B4 |
